# Measurements as given in the supplement of paper PMC7125110.
# ± gives the standard error. For some assays here: This sample holds only a part of the variants without activity.
# B1: glmS ribozyme (parent)
# chain: AUAAAAGCGCCAGAACUACAGAAAUGUAGUUGACGAGGAGGAGGUUUAUCGAAUUUUCGGCGGAUGCCUCCAAA
# Legend:
# Details in all cases: with glucosamine-6-phosphate
# [1] = variants of: B1; experiment: kcat; higher = faster cleavage; RNA array
# In short: (§1)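 Barcoded ribozyme variants on sequenced MiSeq chips were transcribed in situ by E. coli RNA polymerase and followed at 37 °C through a hybridised Cy3 probe. Glucosamine-6-phosphate at 40 μM to 10 mM in HEPES/KCl/Mg(OAc)2 buffer was flowed in, and tiles were imaged over ~14 h. Signals were normalised to baseline and to non-cleaving reference variants, and per-tile medians were fit to one- or two-exponential decays to give kobs. Weighted Michaelis–Menten fits across concentrations gave kcat and KM.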
# [2] = variants of: B1; experiment: self-cleavage kobs at 160 uM GlcN6P; higher = faster cleavage; RNA array
# In short: as §1
# [3] = variants of: B1; experiment: self-cleavage kobs at 640 uM GlcN6P; higher = faster cleavage; RNA array
# In short: as §1
# [4] = variants of: B1; experiment: self-cleavage kobs at 40 uM GlcN6P; higher = faster cleavage; RNA array
# In short: as §1
# [5] = variants of: B1; experiment: KM; higher = weaker cofactor use; RNA array
# In short: as §1
# [6] = variants of: B1; experiment: self-cleavage kobs at 10000 uM GlcN6P; higher = faster cleavage; RNA array
# In short: as §1
# [7] = variants of: B1; experiment: self-cleavage kobs at 2500 uM GlcN6P; higher = faster cleavage; RNA array
# In short: as §1
Variant,kcat [1] [s⁻¹],self-cleavage kobs at 160 uM GlcN6P [2] [s⁻¹],self-cleavage kobs at 640 uM GlcN6P [3] [s⁻¹],self-cleavage kobs at 40 uM GlcN6P [4] [s⁻¹],KM [5] [µM],self-cleavage kobs at 10000 uM GlcN6P [6] [s⁻¹],self-cleavage kobs at 2500 uM GlcN6P [7] [s⁻¹]
C11A G40U,1.13e-05 ± 2e-06,< 1e-05,< 1e-05,–,–,–,–
C10U U30C G59A G60A C70U,< 1e-05,–,–,< 1e-05,–,–,–
C10U G35C,< 1e-05,< 1e-05,< 1e-05,< 1e-05,–,–,–
C11A U30A U45G,2.81e-05 ± 1.1e-06,–,–,–,3690 ± 410,–,–
C10A G51U,< 1e-05,–,–,< 1e-05,–,< 1e-05,–
C11A A15G,0.000255 ± 2.9e-05,3.04e-05 ± 1.5e-05,8.86e-05 ± 1e-05,–,1280 ± 310,0.000251 ± 3.3e-05,0.000149 ± 1.9e-05
A6G U31G,0.000452 ± 9.7e-05,–,4.67e-05 ± 9.4e-06,–,4990 ± 1600,0.000281 ± 5.8e-05,0.000183 ± 3.2e-05
A6U C70G,3.01e-05 ± 9.6e-06,–,3.81e-05 ± 1.3e-05,–,–,1.91e-05 ± 6.9e-06,5.38e-05 ± 1.1e-05
A6U C50U,< 1e-05,–,–,–,–,–,< 1e-05
A6U U54G,0.000293 ± 3e-05,–,3.62e-05 ± 8.4e-06,–,3960 ± 740,0.000204 ± 2.5e-05,0.000122 ± 1.5e-05
A6U G59A,< 1e-05,–,< 1e-05,< 1e-05,–,–,–
C8G A15U U55C G60A,< 1e-05,–,–,–,–,< 1e-05,–
A6U A23C U30G,5.38e-05 ± 1.9e-06,–,–,–,2780 ± 300,4.19e-05 ± 1.6e-05,–
C11A U69C,6.61e-05 ± 1e-05,–,7.71e-05 ± 3.5e-05,–,–,4.97e-05 ± 1.6e-05,7.67e-05 ± 1.5e-05
C11A C70U,0.000155 ± 1e-05,6.69e-05 ± 1.4e-05,0.00011 ± 1.2e-05,2.69e-05 ± 1e-05,210 ± 71,0.000145 ± 9.7e-06,0.000168 ± 1.4e-05
C11A C70A,2.97e-05 ± 1.1e-05,–,4.96e-05 ± 1.9e-05,–,–,–,–
C8U C10U,< 1e-05,–,< 1e-05,< 1e-05,–,–,–
A6G U45A,0.000591 ± 0.00015,–,–,–,–,0.000455 ± 8.7e-05,0.000454 ± 0.00011
C10A U54G,< 1e-05,–,–,< 1e-05,–,–,–
A6U G59A C68U,1.04e-05 ± 3.6e-06,–,–,–,–,–,–

Variant,kcat [1] [s⁻¹],self-cleavage kobs at 160 uM GlcN6P [2] [s⁻¹],self-cleavage kobs at 640 uM GlcN6P [3] [s⁻¹],self-cleavage kobs at 40 uM GlcN6P [4] [s⁻¹],KM [5] [µM],self-cleavage kobs at 10000 uM GlcN6P [6] [s⁻¹],self-cleavage kobs at 2500 uM GlcN6P [7] [s⁻¹]
A6G C67A,0.00012 ± 9e-06,–,–,< 1e-05,3130 ± 670,9.19e-05 ± 1.6e-05,–
C10G U47G G60C,0.000977 ± 0.00037,0.000156 ± 5e-05,0.000256 ± 7.5e-05,–,–,0.0011 ± 0.00032,0.000552 ± 0.00013
A6U C16U C68U,9.14e-05 ± 3.2e-06,–,–,–,625 ± 120,8.55e-05 ± 2e-05,7.4e-05 ± 1.9e-05
C11A G37U,1.35e-05 ± 3.5e-06,< 1e-05,–,–,–,–,–
C11A G44U G59U,0.000238 ± 5.3e-06,–,7.85e-05 ± 2.2e-05,–,1330 ± 77,0.000212 ± 4e-05,0.00015 ± 4.7e-05
A6G U69A,< 1e-05,< 1e-05,–,–,–,< 1e-05,–
G9U U47C,< 1e-05,< 1e-05,< 1e-05,–,–,–,< 1e-05
A6U U56C,3.09e-05 ± 1.4e-06,< 1e-05,–,–,4670 ± 590,2.11e-05 ± 7.5e-06,–
C10U A12G,2.19e-05 ± 1.8e-06,–,–,–,2150 ± 870,–,–
C8U A36C,< 1e-05,–,–,–,–,< 1e-05,–
G9U A39U C61A,0.000456 ± 2.3e-05,0.000118 ± 4.8e-05,0.000243 ± 6.2e-05,–,503 ± 58,0.00046 ± 0.00017,0.000376 ± 0.00013
G7U G13A,< 1e-05,–,–,< 1e-05,–,–,< 1e-05
A6U A39G,0.000267 ± 2.8e-05,–,–,–,5030 ± 1100,0.000175 ± 2.6e-05,9.44e-05 ± 1.8e-05
A6U A39U,0.000104 ± 2.7e-06,–,2.53e-05 ± 8.4e-06,–,2160 ± 150,8.67e-05 ± 1.1e-05,5.5e-05 ± 7.8e-06
C10G U46A,< 1e-05,–,< 1e-05,–,–,–,< 1e-05
C10U U55A,1.86e-05 ± 2.2e-06,–,–,–,–,1.77e-05 ± 7.8e-06,–
C10U U55C,3.56e-05 ± 9.4e-06,–,–,< 1e-05,–,1.93e-05 ± 9e-06,–
A6U A39U C70U,6.69e-05 ± 6e-06,–,3.98e-05 ± 1.7e-05,–,506 ± 210,6.76e-05 ± 1.9e-05,4.96e-05 ± 1.8e-05
C11G A12G,< 1e-05,< 1e-05,–,< 1e-05,16.2 ± 6.9,< 1e-05,–
